Like-named read-outs stand apart in the source and are kept apart here.

The target in series [1] is T1, MutS (Pseudomonas aeruginosa, UniProt Q9HY08 1-855).
T1 sequence: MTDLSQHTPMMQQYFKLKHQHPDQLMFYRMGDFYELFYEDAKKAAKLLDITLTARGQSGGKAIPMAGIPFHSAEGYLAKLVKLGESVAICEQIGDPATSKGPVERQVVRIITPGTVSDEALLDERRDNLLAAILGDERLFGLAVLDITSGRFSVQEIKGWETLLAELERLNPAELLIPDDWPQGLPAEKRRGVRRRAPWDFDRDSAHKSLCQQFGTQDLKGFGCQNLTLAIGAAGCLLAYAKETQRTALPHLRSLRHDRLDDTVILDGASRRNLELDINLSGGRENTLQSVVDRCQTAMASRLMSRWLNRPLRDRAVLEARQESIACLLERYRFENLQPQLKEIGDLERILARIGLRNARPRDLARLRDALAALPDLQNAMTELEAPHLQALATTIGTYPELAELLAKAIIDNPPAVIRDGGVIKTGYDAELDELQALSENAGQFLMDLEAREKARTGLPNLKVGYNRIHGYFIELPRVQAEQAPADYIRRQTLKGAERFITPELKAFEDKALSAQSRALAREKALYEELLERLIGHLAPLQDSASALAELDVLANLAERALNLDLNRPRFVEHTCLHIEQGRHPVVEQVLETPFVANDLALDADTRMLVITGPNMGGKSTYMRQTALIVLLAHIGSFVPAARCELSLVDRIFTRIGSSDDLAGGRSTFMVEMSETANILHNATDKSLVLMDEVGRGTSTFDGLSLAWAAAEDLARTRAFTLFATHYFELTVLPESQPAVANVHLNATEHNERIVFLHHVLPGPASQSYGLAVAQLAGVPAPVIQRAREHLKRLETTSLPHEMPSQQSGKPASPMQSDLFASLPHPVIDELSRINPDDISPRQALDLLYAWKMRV
Kind of series: SPR. (In general: In SPR one partner is held on a chip, and binding of the other changes the refractive index at the surface.)

Series [2] addresses T1, MutS. Kind of series: SPR. The source holds these as a separate data set.
Another series has as its target T2, MutS E. coli (Escherichia coli, UniProt P23909 1-853).
T2 sequence: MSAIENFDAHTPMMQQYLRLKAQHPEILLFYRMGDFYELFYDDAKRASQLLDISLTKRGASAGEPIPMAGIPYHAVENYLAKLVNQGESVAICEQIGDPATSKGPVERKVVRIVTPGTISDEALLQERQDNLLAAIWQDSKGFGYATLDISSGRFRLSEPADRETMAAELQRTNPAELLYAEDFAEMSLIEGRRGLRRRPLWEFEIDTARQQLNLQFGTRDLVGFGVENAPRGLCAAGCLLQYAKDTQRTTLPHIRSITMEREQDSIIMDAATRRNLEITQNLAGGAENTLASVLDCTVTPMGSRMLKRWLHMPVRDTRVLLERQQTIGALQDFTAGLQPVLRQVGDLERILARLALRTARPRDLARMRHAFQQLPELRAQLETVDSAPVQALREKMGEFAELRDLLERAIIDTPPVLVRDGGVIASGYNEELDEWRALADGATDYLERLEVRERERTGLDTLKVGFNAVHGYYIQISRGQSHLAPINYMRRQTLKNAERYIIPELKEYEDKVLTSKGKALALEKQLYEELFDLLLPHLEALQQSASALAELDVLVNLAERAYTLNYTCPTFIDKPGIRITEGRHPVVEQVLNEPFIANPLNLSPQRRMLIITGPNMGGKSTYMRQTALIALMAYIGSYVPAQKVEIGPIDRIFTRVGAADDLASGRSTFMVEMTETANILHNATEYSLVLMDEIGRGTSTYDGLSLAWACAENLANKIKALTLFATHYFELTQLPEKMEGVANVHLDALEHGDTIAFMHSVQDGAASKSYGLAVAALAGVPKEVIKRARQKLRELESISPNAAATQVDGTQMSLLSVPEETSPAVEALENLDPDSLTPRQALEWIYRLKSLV
Kind of series: native PAGE shift.

B1: GT-pDNA (GT 8 nt from 3'-OH) (dsDNA)
DNA 1: ATGTGAATCAGTATGGTTGCTATCTGC
DNA 2: ATTTCCTTCAGCAGATAGTAACCATACTGATTCACAT
For the molecule B1, in the series with MutS [1], the Kd (commonly the equilibrium constant for the complex coming apart) was found to be 53.3 ± 3.7 nM.

B2: dsDNA (dsDNA)
DNA 1: ATGTGAATCAGTATGGTTACTATCTGCTGAAGGAAAT
DNA 2: ATTTCCTTCAGCAGATAGTAACCATACTGATTCACAT
As for B2, the Kd with MutS [2] is 1960 nM.

B3: GT-dsDNA (GT 18 nt from 3' end) (dsDNA)
DNA 1: ATGTGAATCAGTATGGTTGCTATCTGCTGAAGGAAAT
DNA 2: ATTTCCTTCAGCAGATAGTAACCATACTGATTCACAT
As for B3, the binding result with MutS E. coli is “binds”.

The record behind these values is article doi:10.1101/2020.05.01.070730 (bioRxiv, 2020).
